Reference: IntAct's records for PubMed 19176810

Target: fadd_human FADD (UniProt Q13158)
Chain of UniProt Q13158 (Q13158 whole entry): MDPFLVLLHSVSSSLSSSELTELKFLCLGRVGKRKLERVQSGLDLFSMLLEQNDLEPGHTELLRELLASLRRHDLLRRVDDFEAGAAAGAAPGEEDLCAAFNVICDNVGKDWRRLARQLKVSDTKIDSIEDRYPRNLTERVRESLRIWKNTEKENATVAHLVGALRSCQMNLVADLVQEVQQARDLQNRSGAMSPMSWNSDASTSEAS

| Substance | effect of a mutation on the interaction |
| --- | --- |
| Leucine-rich repeat serine/threonine-protein kinase 2 (Homo sapiens), Q5S007 G2019S | increasing interaction |
| Leucine-rich repeat serine/threonine-protein kinase 2 (Homo sapiens), Q5S007 Y1699C | increasing interaction |
| Leucine-rich repeat serine/threonine-protein kinase 2 (Homo sapiens), Q5S007 I2020T | increasing interaction |
| Leucine-rich repeat serine/threonine-protein kinase 2 (Homo sapiens), Q5S007 R1441C | increasing interaction |
